What was measured:
[1] = biological target: T1, FcεRII (CD23) on IM9 cells (human) (UniProt P06734); assay: FACS, 1.65 ug/ml, IM9 cells
T1 sequence (looked up): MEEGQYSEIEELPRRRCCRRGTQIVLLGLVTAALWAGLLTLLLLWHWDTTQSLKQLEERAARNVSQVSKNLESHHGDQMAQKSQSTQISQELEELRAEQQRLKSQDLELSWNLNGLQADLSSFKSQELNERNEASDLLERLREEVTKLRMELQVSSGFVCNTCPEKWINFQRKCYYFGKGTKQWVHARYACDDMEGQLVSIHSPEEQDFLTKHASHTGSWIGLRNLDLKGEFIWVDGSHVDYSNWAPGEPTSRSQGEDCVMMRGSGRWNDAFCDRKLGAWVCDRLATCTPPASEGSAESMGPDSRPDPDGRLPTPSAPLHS

[2] = biological target: FcεRI alpha chain on CHO 3D10 cells (UniProt P12319); assay: FACS, 1.65 ug/ml, CHO 3D10 cells
[3] = biological target: FcεRI alpha chain on CHO 3D10 cells (UniProt P12319); assay: FACS, 0.1 ug/ml, CHO 3D10 cells
[4] = biological target: T1, FcεRII (CD23) on IM9 cells (human); assay: FACS, 0.1 ug/ml, IM9 cells
[5] = biological target: FcεRI alpha chain on CHO 3D10 cells (UniProt P12319); assay: FACS, 5 ug/ml, CHO 3D10 cells
[6] = biological target: FcεRI alpha chain on CHO 3D10 cells (UniProt P12319); assay: FACS, 0.5 ug/ml, CHO 3D10 cells
[7] = biological target: T1, FcεRII (CD23) on IM9 cells (human); assay: FACS, 0.5 ug/ml, IM9 cells
[8] = biological target: T1, FcεRII (CD23) on IM9 cells (human); assay: FACS, 5 ug/ml, IM9 cells
[9] = biological target: FcεRI alpha chain on CHO 3D10 cells (UniProt P12319); assay: FACS, 10 ug/ml, CHO 3D10 cells
[10] = biological target: T1, FcεRII (CD23) on IM9 cells (human); assay: FACS, 10 ug/ml, IM9 cells

FcεRI alpha chain on CHO 3D10 cells, sequence (P12319 26-257 limits assumed): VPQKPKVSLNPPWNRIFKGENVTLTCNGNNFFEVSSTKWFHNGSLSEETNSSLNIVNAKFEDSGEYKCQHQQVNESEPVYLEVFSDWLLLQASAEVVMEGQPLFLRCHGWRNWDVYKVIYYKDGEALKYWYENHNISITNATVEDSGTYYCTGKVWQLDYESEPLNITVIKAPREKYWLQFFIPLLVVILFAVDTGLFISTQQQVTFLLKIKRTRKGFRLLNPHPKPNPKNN
human IgE (U266 IgE), sequence (P01854 whole entry): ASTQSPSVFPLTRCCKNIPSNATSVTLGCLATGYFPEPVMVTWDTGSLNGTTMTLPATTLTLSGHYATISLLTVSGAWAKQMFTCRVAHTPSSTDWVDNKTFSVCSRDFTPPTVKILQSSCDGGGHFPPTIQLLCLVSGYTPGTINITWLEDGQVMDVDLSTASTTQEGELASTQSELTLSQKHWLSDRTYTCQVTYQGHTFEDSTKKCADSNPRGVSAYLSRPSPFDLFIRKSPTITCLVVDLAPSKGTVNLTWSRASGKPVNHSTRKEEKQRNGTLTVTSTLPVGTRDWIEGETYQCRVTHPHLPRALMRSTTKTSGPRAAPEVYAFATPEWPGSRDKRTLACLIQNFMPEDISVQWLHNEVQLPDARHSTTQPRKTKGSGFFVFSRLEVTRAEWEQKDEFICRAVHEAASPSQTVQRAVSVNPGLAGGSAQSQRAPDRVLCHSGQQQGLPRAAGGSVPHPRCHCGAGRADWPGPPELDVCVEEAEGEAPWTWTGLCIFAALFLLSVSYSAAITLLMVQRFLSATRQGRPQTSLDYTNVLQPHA
human IgE mutant 1 (loop AB exchanged for human IgG1 loop), sequence (P01854 other isoform, or with tags, fused parts or gaps, change not shown): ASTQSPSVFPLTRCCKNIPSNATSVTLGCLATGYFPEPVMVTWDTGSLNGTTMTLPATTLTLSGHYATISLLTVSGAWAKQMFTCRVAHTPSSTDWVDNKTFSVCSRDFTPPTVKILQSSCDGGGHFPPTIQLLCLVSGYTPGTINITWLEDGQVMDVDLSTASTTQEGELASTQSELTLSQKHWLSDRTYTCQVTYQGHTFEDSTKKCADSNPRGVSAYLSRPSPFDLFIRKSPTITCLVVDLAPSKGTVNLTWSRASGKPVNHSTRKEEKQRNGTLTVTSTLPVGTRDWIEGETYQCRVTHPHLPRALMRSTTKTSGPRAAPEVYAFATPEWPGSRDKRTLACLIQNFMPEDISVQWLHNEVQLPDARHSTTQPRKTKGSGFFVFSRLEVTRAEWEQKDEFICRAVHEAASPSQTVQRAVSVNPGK
human IgE mutant 8 (T387A, T389A), sequence (P01854 other isoform, or with tags, fused parts or gaps, stated change not applied): as the sequence (P01854 other isoform, or with tags, fused parts or gaps, change not shown) above
human IgE mutant 4 (loop EF exchanged), sequence (P01854 other isoform, or with tags, fused parts or gaps, change not shown): as above
human IgE mutant 13 (Fcε2: 329-331 and 334-336 to Ala), sequence (P01854 other isoform, or with tags, fused parts or gaps, change not shown): as above
human IgE mutant 2 (loop BC exchanged), sequence (P01854 other isoform, or with tags, fused parts or gaps, change not shown): as above
human IgE mutant 10 (T438A, T440A), sequence (P01854 other isoform, or with tags, fused parts or gaps, stated change not applied): as the sequence (P01854 other isoform, or with tags, fused parts or gaps, change not shown) above
human IgE mutant 11 (Q455A, R457A, T459A), sequence (P01854 other isoform, or with tags, fused parts or gaps, stated change not applied): as the sequence (P01854 other isoform, or with tags, fused parts or gaps, change not shown) above
human IgE mutant 5 (loop FG exchanged), sequence (P01854 other isoform, or with tags, fused parts or gaps, change not shown): as above
human IgE mutant 9 (N403A, T405A), sequence (P01854 other isoform, or with tags, fused parts or gaps, stated change not applied): as the sequence (P01854 other isoform, or with tags, fused parts or gaps, change not shown) above
human IgE mutant 12 (S471A, T473A), sequence (P01854 other isoform, or with tags, fused parts or gaps, stated change not applied): as the sequence (P01854 other isoform, or with tags, fused parts or gaps, change not shown) above
human IgE mutant 6 (β-strand D exchanged), sequence (P01854 other isoform, or with tags, fused parts or gaps, change not shown): as above
human IgE mutant 3 (loop CD exchanged), sequence (P01854 other isoform, or with tags, fused parts or gaps, change not shown): as above
human IgE mutant 7 (383-385 RKS to AAA), sequence (P01854 other isoform, or with tags, fused parts or gaps, change not shown): as above

Substance | % IM9 (+) [1] [%] | % CHO 3D10 (+) [2] [%] | other results
human IgE mutant 1 (loop AB exchanged for human IgG1 loop) (from UniProt P01854 1-428) (antibody) | 4.3 | 1.7 | 
human IgE mutant 9 (N403A, T405A) (from UniProt P01854 1-428) (antibody) | 94.3 | 84.2 | 
human IgE mutant 3 (loop CD exchanged) (from UniProt P01854 1-428) (antibody) | 1.2 | 32.3 | 
human IgE (U266 IgE) (from UniProt P01854 1-546) (antibody) |  |  | % CHO 3D10 (+) [3]: 15.8%; % IM9 (+) [4]: 1.7%; % CHO 3D10 (+) [5]: 89.9%; % CHO 3D10 (+) [6]: 59.6%; % IM9 (+) [7]: 4.6%; % IM9 (+) [8]: 82.6%; % CHO 3D10 (+) [9]: 90.3%; % IM9 (+) [10]: 92.5%
human IgE mutant 12 (S471A, T473A) (from UniProt P01854 1-428) (antibody) | 90.3 | 84.7 | 
human IgE mutant 5 (loop FG exchanged) (from UniProt P01854 1-428) (antibody) | 73.9 | 60.5 | 
human IgE mutant 6 (β-strand D exchanged) (from UniProt P01854 1-428) (antibody) | 71.6 | 1.4 | 

Continued, in another order:

% IM9 (+) [1] [%] | % CHO 3D10 (+) [2] [%] | Substance | other results
96.1 | 85.7 | human IgE mutant 13 (Fcε2: 329-331 and 334-336 to Ala) (from UniProt P01854 1-428) (antibody) | 
84.8 | 67.5 | human IgE mutant 10 (T438A, T440A) (from UniProt P01854 1-428) (antibody) | 
61.5 | 70.8 | human IgE mutant 11 (Q455A, R457A, T459A) (from UniProt P01854 1-428) (antibody) | 
16.3 | 70.3 | human IgE mutant 8 (T387A, T389A) (from UniProt P01854 1-428) (antibody) | 
48.9 | 34.3 | human IgE mutant 2 (loop BC exchanged) (from UniProt P01854 1-428) (antibody) | 
4.6 | 76.4 | human IgE mutant 7 (383-385 RKS to AAA) (from UniProt P01854 1-428) (antibody) | 
9.2 | 4.9 | human IgE mutant 4 (loop EF exchanged) (from UniProt P01854 1-428) (antibody) | 

Source: patent publication US20030044858A1
